Values of other authors as cited in paper PMC2792886.

Target: holoBirA (Escherichia coli) (UniProt P06709)

holoBirA (from UniProt P06709)
Kd: 10 µM
